± gives the uncertainty stated by the source.
experiment: protein stability index of a GFP-peptide fusion (yeast GPS) (PSI 1-4); higher = more stable; sorted into four equal gates, so the index is relative within each strain; conditions: san1∆
How it was run: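 Sequencing reads from sorted gates were used to score each peptide. The library consisted of tiled 17-residue yeast protein peptides fused downstream of GFP on a Cherry-expressing plasmid, pooled and carried in yeast. Mid-log cultures in leucine-free medium were split into four equal gates by GFP/Cherry ratio, and each gate's plasmids were PCR-amplified and Illumina-sequenced. The protein stability index adds up, over all gates, the read frequency multiplied by the gate number.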

Sequence	protein stability index
YKDSLALINDLLREFKK [RPN6]	1.86 ± 0.22
YKFLDQNSDASTLEPTL [YIL149C/MLP2]	2.27 ± 0.09
YKKIPLLGPTLEDHTPP [QCR10]	2.42 ± 0.083
YKLTNDEEGIFSRFVDQ [YCG1]	3 ± 0.085
YLAKELNLTGPKVPEDI [RPN1]	2.38 ± 0.24
YLGEGPRMVRDVFRLAR [RPT3]	2.8 ± 0.14
YLGTKVELPYGAHGYSG [PRE1]	2.5 ± 0.1
YLHNVELGEKKNEKLKF [ISW2]	2.89 ± 0.096
YLIKLLGFEVKDQALIG [SIR2]	2.1 ± 0.061
YLREDQMIDTSILPTRD [NUT1]	2.94 ± 0.072
YMEKGTQLDDLQHELMI [YML103C/NUP188]	2.19 ± 0.063
YMVSRAIRDGVIEAKIN [RPN3]	2.95 ± 0.12
YNLLVKISLHKREYLEV [RPN5]	1.34 ± 0.17
YPDFRHYGLAVDIYTHF [DIS3]	1.9 ± 0.066
YPDLCSIYDKWTDPNLK [RPN1]	2.21 ± 0.11
YPDLQPFVLAENMWPFS [CDC53]	2.01 ± 0.055
YPESISNELIEHFSHFG [YDL088C/ASM4]	2.89 ± 0.043
YPIYELLMSCPRLSHLS [GRR1]	1.45 ± 0.14
YPNEVLKFNHGNYSHLM [REC8]	2.76 ± 0.059
YQEDIFVSESPSFVKSG [ISW2]	2.48 ± 0.13
YQELAYRATSLDPSLRA [YML031W/NDC1]	2.83 ± 0.036
YQGVYSMGSILLSFVLG [YML031W/NDC1]	2.58 ± 0.11
YQKEYETAERNIIQAKR [RPL7A]	1.94 ± 0.16
YQMHIKTSKDIAVLRSK [FAS1]	2.3 ± 0.062

Sequence	protein stability index
YQRPMQVQGQQQAQSFV [SSN3]	2.5 ± 0.05
YRCFAQLELRQLNASIS [RRI2]	3.12 ± 0.16
YRLDIIESALKSKLDQD [RPN2]	1.99 ± 0.16
YRNFMVNSYRLNPNEYF [SWI3]	2.3 ± 0.1
YRRALQSSESFDDSDIT [YML103C/NUP188]	2.16 ± 0.058
YRVTLESILQMNQGEGE [RPC34]	3.46 ± 0.26
YSALNSTYLPKLISAFD [RRP42]	2.57 ± 0.06
YSKDAKEIYYTPDPSEL [FAS2]	2.6 ± 0.026
YSKIKHLGLDDPQDVFN [SIR2]	3.3 ± 0.14
YSSYIYKVLKQTHPDTG [HTB1]	1.7 ± 0.074
YTANTSAQSIASAKSVR [YAR002W/NUP60]	2.65 ± 0.09
YTKETYQSRGIDAMKAV [RPN6]	2.83 ± 0.064
YTLTEEGVEYLREYLNL [RPS10A]	3.51 ± 0.16
YTREFVEAIRRSNQYQR [NUT2]	2.88 ± 0.12
YVESDEDDTQIVTGNLV [IRR1]	3.08 ± 0.08
YVISLSYTDAQDKSKKI [YMR129W/POM152]	2.9 ± 0.072
YVKEKLEAVNSMIEKGG [RPN7]	2.77 ± 0.08
YVNDVAIYNNPTRIRTK [RRI2]	2.19 ± 0.058
YVYRASKEVRGSKIRVM [RPL33A]	2.5 ± 0.064
YWQYKAGIPIGLKRSQL [SWP82]	1.69 ± 0.15
YYAKKRAFTKKVSSASA [RPL16B]	1.95 ± 0.068
YYDRKEELKNMFLYILK [RRI2]	1.27 ± 0.11
YYNEEGIHILLYSGLII [RPC82]	2.14 ± 0.18
YYNPQAGTKITICIELK [RGR1]	2.1 ± 0.13

same assay, conditions: ubr1∆

Sequence	protein stability index
YKDSLALINDLLREFKK [RPN6]	3.21 ± 0.23
YKFLDQNSDASTLEPTL [YIL149C/MLP2]	2.67 ± 0.18
YKKIPLLGPTLEDHTPP [QCR10]	2.76 ± 0.029
YKLTNDEEGIFSRFVDQ [YCG1]	2.94 ± 0.057
YLGEGPRMVRDVFRLAR [RPT3]	2.88 ± 0.09
YLGTKVELPYGAHGYSG [PRE1]	2.96 ± 0.086
YLHNVELGEKKNEKLKF [ISW2]	2.87 ± 0.1
YLIKLLGFEVKDQALIG [SIR2]	2.73 ± 0.087
YLREDQMIDTSILPTRD [NUT1]	2.42 ± 0.048
YMEKGTQLDDLQHELMI [YML103C/NUP188]	2.25 ± 0.035
YMVSRAIRDGVIEAKIN [RPN3]	2.8 ± 0.15
YNLLVKISLHKREYLEV [RPN5]	1.43 ± 0.092
YPDFRHYGLAVDIYTHF [DIS3]	2.2 ± 0.031
YPDLCSIYDKWTDPNLK [RPN1]	2.93 ± 0.085
YPDLQPFVLAENMWPFS [CDC53]	1.71 ± 0.044
YPESISNELIEHFSHFG [YDL088C/ASM4]	2.93 ± 0.034
YPIYELLMSCPRLSHLS [GRR1]	1.39 ± 0.052
YPNEVLKFNHGNYSHLM [REC8]	2.88 ± 0.061
YQEDIFVSESPSFVKSG [ISW2]	2.73 ± 0.045
YQELAYRATSLDPSLRA [YML031W/NDC1]	2.61 ± 0.031
YQGVYSMGSILLSFVLG [YML031W/NDC1]	2.44 ± 0.12
YQMHIKTSKDIAVLRSK [FAS1]	2.46 ± 0.072
YQRPMQVQGQQQAQSFV [SSN3]	2.63 ± 0.035
YRCFAQLELRQLNASIS [RRI2]	3.39 ± 0.17

Sequence	protein stability index
YRLDIIESALKSKLDQD [RPN2]	1.94 ± 0.19
YRNFMVNSYRLNPNEYF [SWI3]	2.46 ± 0.075
YRRALQSSESFDDSDIT [YML103C/NUP188]	2.46 ± 0.047
YRVTLESILQMNQGEGE [RPC34]	2.97 ± 0.12
YSALNSTYLPKLISAFD [RRP42]	2.39 ± 0.055
YSKDAKEIYYTPDPSEL [FAS2]	2.619 ± 0.024
YSKIKHLGLDDPQDVFN [SIR2]	3.24 ± 0.096
YSSYIYKVLKQTHPDTG [HTB1]	1.81 ± 0.045
YTANTSAQSIASAKSVR [YAR002W/NUP60]	2.71 ± 0.12
YTKETYQSRGIDAMKAV [RPN6]	2.39 ± 0.047
YTLTEEGVEYLREYLNL [RPS10A]	3.39 ± 0.12
YTREFVEAIRRSNQYQR [NUT2]	2.21 ± 0.082
YVESDEDDTQIVTGNLV [IRR1]	3.26 ± 0.076
YVFNARPDGVHVINVGK [RPS0A]	2.55 ± 0.11
YVIHGIELLSDLINILE [LIN1]	2.43 ± 0.14
YVISLSYTDAQDKSKKI [YMR129W/POM152]	2.68 ± 0.06
YVKEKLEAVNSMIEKGG [RPN7]	2.83 ± 0.06
YVNDVAIYNNPTRIRTK [RRI2]	2.4 ± 0.04
YVYRASKEVRGSKIRVM [RPL33A]	2.88 ± 0.049
YWQYKAGIPIGLKRSQL [SWP82]	1.49 ± 0.049
YYAKKRAFTKKVSSASA [RPL16B]	1.41 ± 0.055
YYDRKEELKNMFLYILK [RRI2]	1.52 ± 0.1
YYNEEGIHILLYSGLII [RPC82]	2.28 ± 0.037
YYNPQAGTKITICIELK [RGR1]	2.48 ± 0.1

From the supplement of paper PMC9732359
